# Reference: patent US20070134236A1 (Biogen, published 2007)
# T1: human MCP-2 (human, UniProt P80075 24-99)
# T1 construct: also called hMCP-2; huMCP-2
# T1 sequence (looked up): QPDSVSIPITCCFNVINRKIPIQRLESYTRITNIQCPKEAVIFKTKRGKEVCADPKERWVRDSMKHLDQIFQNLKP
# T2: human DC-CK (human, UniProt P55774 21-89)
# T2 sequence (looked up): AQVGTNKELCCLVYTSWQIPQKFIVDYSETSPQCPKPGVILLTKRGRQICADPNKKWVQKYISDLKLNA
# T3: human fractalkine (human, UniProt P78423 25-100, limits assumed)
# T3 sequence (looked up): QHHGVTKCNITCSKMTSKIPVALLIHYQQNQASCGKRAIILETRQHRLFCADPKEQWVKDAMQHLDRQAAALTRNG
# Experiments:
# human MCP-1 [1] = target: T4, human MCP-1 (human, UniProt P13500 24-99); test: ELISA on plate-coated human MCP-1, anti-human IgG-HRP; y axis unlabelled, OD 405 nm per paragraph 382
# T4 construct: also called hMCP-1; huMCP-1
# Description: (§1) Binding specificities of chimeric 11K2 and the four versions of humanized 11K2 (H1-L1, H1-L2, H2-L1, and H2-L2) were determined by ELISA, according to the protocol described in Example 1.
# (§2) ELISA plates (Corning, Inc. Cat#3369) were coated with 50 ng MCP-1 per well overnight at 4° C. Plates were washed then blocked with PBS/5% milk for 1.5 hrs at 25° C. Another wash was followed by incubation with the 11K2 mAbs (or 3G9 isotype control) at the concentrations indicated for 1 hr at 25° C. After washing, the plates were incubated with secondary antibody (anti-human IgG-HRP, Jackson Immunoresearch Cat#109-036-088) for 1 hr at 25° C. Plates were then washed and developed using the ABTS Peroxidase Substrate Kit (Vector Laboratories Cat#SK-4500). OD (405 nm) values were plotted as a function of 11K2 mAb concentration.
# human MCP-2 [2] = target: T1, human MCP-2; test: ELISA on immobilised MCP-2, absorbance 450 nm
# murine MCP-1 (JE) = target: T5, murine MCP-1 (JE) (mouse, UniProt P10148 24-148); test: ELISA on plate-coated murine MCP-1, anti-human IgG-HRP; y axis unlabelled, OD 405 nm per paragraph 382
# T5 construct: also called mMCP-1 (JE); muMCP-1
# Description: as §1, §2
# human MCP-3 = target: T6, human MCP-3 (human, UniProt P80098 24-99); test: ELISA
# T6 construct: also called hMCP-3
# human MCP-1 [3] = target: T4, human MCP-1; test: KinExA, in solution
# Description: (§3) Polymethylmethacrylate beads activated with NHS were coated with 10 μg recombinant human MCP-1 in 1 ml buffer. The beads were packed into a column in the KinExA instrument for each sample. This packed bead column is able to capture free MCP mAb or Fab flowed through the column. The amount of free mAb or Fab in solution was determined using a secondary goat anti-mouse heavy and light chain IgG-Cy5 conjugate.
# (§4) A fixed amount of 11K2 mAb, 1A1 mAb, 11K2 Fab, or 1A1 Fab was incubated with various amounts of human MCP-1, MCP-2 or MCP-3 for three hours. The amount of uncomplexed free antibody remaining in solution was determined by flowing these mixtures over the MCP-1-loaded bead column and labeling with the Cy5 secondary antibody. The fluorescent signal was plotted against the MCP concentration and the affinity was determined using a quadratic curve fit
# human MCP-2 [4] = target: T1, human MCP-2; test: KinExA, in solution; intact bivalent mAb, not Fab
# Description: as §3, §4
# human DC-CK = target: T2, human DC-CK; test: ELISA, supernatant
# Description: (§5) MaxiSorp 384 well plates were coated with 15-20 μl antigen in PBS. Recombinant purified human antigens included: MCP-1, MCP-2, MCP-3, MCP-4, IL-8, eotaxin, fractalkine, Gcp-2, DC-CK (Gcp-2 and DC-CK are also chemokines). Plates were incubated with antigen for 2 hours at 37° C. or overnight at 4° C. Non-specific sites were blocked with 80 μl/well of 1% BSA/PBS for 1 hour at room temperature. Plates were washed and 15 μl of hybridoma supernatant was added to each well and incubated for 1 hour at room temperature. Plates were washed and wells were incubated with 20 μl/well of a 1:25 000 dilution of goat anti-mouse IgG peroxidase conjugate (Jackson Catalog Number 515-036-003). Plates were incubated for 1 hour at room temperature, washed, and 20 μl/well of substrate (TMB, tetramethylbenzidine, Jackson, Catalog Number 515-036-062) was added. Reaction was allowed to proceed and stopped by addition of 20 μl/well of 2M H₂SO₄. Reactive clones were picked for further analysis. Isotyping of hybridoma supernatants was performed by antigen-dependent ELISA. Briefly, wells were coated with 50 μl of human MCP-1 (5 μg/ml) for 1 hour at 37° C. Wells were washed 4 times and blocked with PBS/1% BSA. Isotyping of hybridoma supernatants was then performed using a mouse immunoglobulin screening/isotyping kit (Zymed Laboratories, San Francisco, —CA) as recommended by the manufacturer.
# human Gcp-2 = human Gcp-2 (human, UniProt P80162 38-114, limits assumed); test: ELISA, supernatant
# Description: as §5
# human fractalkine = target: T3, human fractalkine; test: ELISA, supernatant
# Description: as §5
# human IL-8 = target: T7, human IL-8 (human, UniProt P10145 28-99, limits assumed); test: ELISA, purified mAb
# T7 construct: also called hIL8
# Description: (§6) ELISA specificity assays were performed using purified monoclonal antibodies to confirm the binding specificities of the supernatant MCP-specific monoclonal antibodies described above. Antibodies were purified by Protein A affinity column chromatography, according to standard methods known in the art.
# (§7) ELISA was performed as previously described in Example 1. Briefly, MaxiSorp 384 well plates were coated with 15-20 μl antigen in PBS. Recombinant purified human antigens included: MCP-1, MCP-2, MCP-3, MCP-4, IL-8, eotaxin, murine MCP-1 (JE), murine MCP-3, murine MCP-5, and rat MCP-1. All antigens, including MCP-3, were immobilized. Plates were washed and purified monoclonal antibody (10 μg/ml) was added to each well and incubated for 1 hour at room temperature. Plates were washed and wells were incubated with 20 μl/well of a 1:25,000 dilution of goat anti-mouse IgG peroxidase conjugate (Jackson Catalog Number 515-036-003). Plates were incubated for 1 hour at room temperature, washed, and 20 μl/well of substrate (, tetramethylbenzidine, Jackson, Catalog Number 515-036-062) was added. Reaction was allowed to proceed and stopped by addition of 20 μl/well of 2M H₂SO₄. Antibodies 1A1 bound specifically to hMCP-1, hMCP-2, hMCP-3, and mMCP-1. Antibodies 11K2, 4N4, 5A13, 6D21, 615, and 7H1 bound specifically to hMCP-1, hMCP-2, hMCP-3, mMCP-1, mMCP-3, and mMCP-5.
# human MCP-4 = target: T8, human MCP-4 (human, UniProt Q99616 24-98, limits assumed); test: ELISA, purified mAb
# T8 construct: also called hMCP-4
# Description: as §6, §7
# human eotaxin = target: T9, human eotaxin (human, UniProt P51671 24-97); test: ELISA, purified mAb
# T9 construct: also called hEotaxin
# Description: as §6, §7
# human MCP-2 [5] = target: T1, human MCP-2; test: KinExA, in solution; Fab, not intact mAb
# human MCP-1 [6] = target: T4, human MCP-1; test: KinExA, in solution, Fab
# Description: (§8) 1 ml of MCP-1 at a concentration of 10 μg/ml in NaHCO₃ was added to an amount of beads equivalent to 1 ml of the original slurry. The beads were rocked overnight at 4° C. Beads were spun down and washed once with 1M Tris, pH 8.0, then resuspended in 1M Tris pH 8.0 with 1% BSA, 0.02% azide. The beads were rocked at room temperature for one hour then stored at 4° C. in this buffer for the duration of the experiments.
# (§9) The KinExA 3000 measures protein-protein interaction in solution, and is ideally suited for measuring affinities of antibodies to antigens. In the typical experiment, antigen (MCP) is immobilized on a bead, antibody is flowed over a column of these beads at a given concentration, and the antibody that binds to the beads is detected using a fluorescent secondary. Antibody at a fixed concentration is then incubated with different concentrations of antigen in solution and the amount of free antibody is measured by flowing the mixture over the bead column quickly enough that no re-equilibration occurs between solution and solid phase. The amount of antibody remaining free is plotted against the concentration of antigen added and the data are fit to a quadratic equation to determine the affinity of the interaction in solution.
# (§10) In these experiments, the only difference to the typical experiment described above is that instead of using intact antibody, a Fab fragment of 11K2 was used. Earlier KimExA experiments using the intact murine 11K2 mAb binding to MCP-1 and MCP-2 gave biphasic curves that the software could not interpret. This may be due to these proteins acting as dimers, so to eliminate the dimer/dimer interaction we generated Fab fragments. The binding of the 11K2 Fab fragments to MCP-1 and MCP-2 produced curves that the KinExA software could fit.
# human MCP-2 [7] = target: T1, human MCP-2; test: KinExA, in solution, Fab
# Description: as §8, §9, §10
# human MCP-2 [8] = target: T1, human MCP-2; test: KinExA, in solution
# Description: as §3, §4
Binder,EC50 (read off the curve) (human MCP-1 [1]),EC50 (read off the curve) (human MCP-2 [2]),binding result (murine MCP-1 (JE)),binding result (human MCP-3),Kd (human MCP-1 [3]),binding result (human DC-CK),binding result (human Gcp-2),binding result (human fractalkine),binding result (human IL-8),binding result (human MCP-4),binding result (human eotaxin),also measured
"humanized 11K2 H1-L1 (antibody, human IgG1, kappa, V domains shown, human IgG1 kappa; also called hu11K2) VH: QVQLVQSGAEVKKPGSSVKVSCKASGLNIKDTYMHWVRQAPGQGLEWIGRIDPANGNTKFDPKFQGRATITADTSTSTAYMELSSLRSEDTAVYYCARGVFGFFDYWGQGTTVTVSS VL: DIQMTQSPSSLSASVGDRVTITCKATEDIYNRLAWYQQKPGKAPKLLISGATSLETGVPSRFSGSGSGKDYTLTISSLQPEDFATYYCQQFWSAPYTFGGGTKVEIKR",~0.02 µg/mL,~0.3 µg/mL,binds,no binding,–,–,–,–,–,–,–,–
"mouse monoclonal antibody 1A1 (antibody, V domains shown, mouse IgG1; also called 1A1.1; mu1A1) VH: EVQLQQSGAELVRSGASVKLSCTASGFNIKDNYMHWVKQRPEQGLEWIGWIDPENGDTEYAPKFQGKATMTADTSSNTAYLQLSSLTSEDTAVYYCNTWAYYGTSYGGFAYWGQGTTVTVSS VL: not shown",–,–,–,–,< 0.7 pM,no binding,no binding,no binding,no binding (tested: 10 µg/ml),no binding (tested: 10 µg/ml),no binding (tested: 10 µg/ml),Kd (human MCP-2 [4]): 1.2 pM
"Fab fragment of murine 1A1 (Fab, V domains shown, also called 1A1 Fab) VH: EVQLQQSGAELVRSGASVKLSCTASGFNIKDNYMHWVKQRPEQGLEWIGWIDPENGDTEYAPKFQGKATMTADTSSNTAYLQLSSLTSEDTAVYYCNTWAYYGTSYGGFAYWGQGTTVTVSS VL: not shown",–,–,–,–,13 pM,–,–,–,–,–,–,Kd (human MCP-2 [5]): 320 pM; Kd (human MCP-1 [6]): 12.9 pM; Kd (human MCP-2 [7]): 320 pM

# The next lines start with results.
EC50 (read off the curve) (human MCP-1 [1]),EC50 (read off the curve) (human MCP-2 [2]),binding result (murine MCP-1 (JE)),binding result (human MCP-3),Kd (human MCP-1 [3]),binding result (human DC-CK),binding result (human Gcp-2),binding result (human fractalkine),binding result (human IL-8),binding result (human MCP-4),binding result (human eotaxin),Binder,also measured
~0.02 µg/mL,~0.2 µg/mL,binds,no binding,–,–,–,–,–,–,–,"humanized 11K2 H2-L1 (antibody, human IgG1, kappa, V domains shown, human IgG1 kappa) VH: QVQLVQSGAEVKKPGSSVKVSCKASGLTISDTYMHWVRQAPGQGLEWMGRIDPANGNTKFDPKFQGRVTITADTSTSTAYMELSSLRSEDTAVYYCARGVFGFFDYWGQGTTVTVSS VL: DIQMTQSPSSLSASVGDRVTITCKATEDIYNRLAWYQQKPGKAPKLLISGATSLETGVPSRFSGSGSGKDYTLTISSLQPEDFATYYCQQFWSAPYTFGGGTKVEIKR",–
~0.02 µg/mL,–,–,–,–,–,–,–,–,–,–,"chimeric 11K2 antibody (antibody, human IgG1, kappa, V domains shown, murine 11K2 variable domains with human IgG1 and kappa constant regions; also called Chimera; ch11K2) VH: EVQLQQSGAELVKAGASVKLSCPASGLNIKDTYMHWVKQRPEQGLEWIGRIDPANGNTKFDPKFQGKATITADTSSNTAYLQLSSLTSEDTAVYYCARGVFGFFDYWGQGTTLTVSS VL: DIQMTQSSSSFSVSLGDRVTITCKATEDIYNRLAWYQQKPGSAPRLLISGATSLETGVPSRFSGSGSGKDYTLSITSLQTEDVATYYCQQFWSAPYTFGGGTKLEIKR",EC50 (read off the curve) (murine MCP-1 (JE)): ~0.02 µg/mL
–,–,–,–,< 0.4 pM,no binding,no binding,no binding,no binding (tested: 10 µg/ml),no binding (tested: 10 µg/ml),no binding (tested: 10 µg/ml),"mouse monoclonal antibody 11K2 (antibody, V domains shown, mouse IgG1; also called 11K2.1; mu11K2) VH: EVQLQQSGAELVKAGASVKLSCPASGLNIKDTYMHWVKQRPEQGLEWIGRIDPANGNTKFDPKFQGKATITADTSSNTAYLQLSSLTSEDTAVYYCARGVFGFFDYWGQGTTLTVSS VL: DIQMTQSSSSFSVSLGDRVTITCKATEDIYNRLAWYQQKPGSAPRLLISGATSLETGVPSRFSGSGSGKDYTLSITSLQTEDVATYYCQQFWSAPYTFGGGTKLEIK",Kd (human MCP-2 [8]): 18 pM
